Data taken from the Human Domainome abundance scans (Beltran et al. 2025).

B1: Nucleolar transcription factor 1, residues 408 to 469; numbered along this chain, P17480 (parent)
chain: KRPVSAMFIFSEEKRRQLQEERPELSESELTRLLARMWNDLSEKKKAKYKAREAALKAQSER

Variants of: B1
Assay: abundance fitness (aPCA) (normalised: wild type 0, dead -1); higher = more abundant; growth selection in yeast, the domain comes from the species named
Conditions: Homo sapiens

Abundance fitness: each site, then its substitutions
S42: I -0.56, K -0.294, E -0.121, A -0.115, R -0.698, C -0.155, G -0.082, L -0.661, N -0.147, V -0.427, W -1.06, D 0.002, Q -0.288, Y -0.619, M -0.654, T -0.078, H -0.179, P -0.081
A35: I -0.015, T 0.014, F -0.176, D -0.035, H -0.341, E -0.009, C -0.194, R -0.018, W -0.273, N -0.011, S -0.063, Y -0.387, L -0.063, M -0.102, V -0.057, Q -0.017
M37: S -0.225, L -0.062, G -0.32, N -0.305, E -0.094, P -1.1, Q -0.237, R -0.147, D -0.422, A -0.095, C -0.193, F -0.239, V -0.382, K -0.296, H -0.267, Y -0.12, I -0.235, T -0.212
S28: D 0.055, C -0.043, H -0.06, E -0.011, K -0.037, R -0.113, M -0.131, N -0.053, V -0.089, I -0.046, P -0.047, F -0.071, Q -0.08, T -0.076, G -0.047, Y -0.085
K46: T -0.393, L -0.453, P -0.772, Y -0.748, R -0.069, G -0.806, D -0.896, H -0.662, Q -0.112, M -0.336, C -0.537, V -0.3, S -0.569, A -0.311, W -0.736, E -0.708, F -0.785
R32: H 0.023, P -0.116, I -0.007, D -0.058, L -0.018, K 0.021, M -0.105, E -0.07, F -0.188, A -0.033, T -0.007, G -0.085, S 0.022, Y -0.157, W -0.136
L41: V -0.345, M -0.066, K -0.576, W -1.06, P -0.846, Y -0.507, T -0.241, E -0.388, N -0.609, A -0.165, G -0.932, C -0.219, R -0.57, S -0.228, I -0.139, H -0.8, Q -0.225, D -0.613, F -0.362
N39: M -0.071, P -0.608, S -0.054, C -0.138, E -0.037, L -0.122, W -0.203, I -0.147, Q -0.015, A -0.037, R -0.058, T -0.038, D -0.021, V -0.166, F -0.061, H -0.106, Y -0.075, K -0.087
L34: E -0.287, S -0.271, T -0.096, V -0.026, A -0.192, N -0.931, K -1.27, F -0.296, R -0.954, Q -0.525, D -1.19, G -0.566, Y -0.833, P -0.945, W -1.01, C -0.049, I -0.074
D40: R -0.237, G -0.094, S -0.107, F -0.135, P -0.911, E -0.058, A -0.143, N -0.265, I -0.763, C -0.213, K -0.15, V -0.188, M -0.044, T -0.202, L -0.105, W -0.319, Q -0.036, H -0.257
E43: A -0.001, W -0.276, P -0.592, V -0.207, S -0.213, G -0.231, D -0.367, R -0.329, L -0.205
A47: Y -0.122, I -0.184, R -0.047, E -0.039, Q -0.005, G -0.098, F -0.11, K -0.029, T -0.138, N -0.297, H -0.295, L -0.064, D -0.291, S -0.046, P -0.695, C -0.156
K45: A -0.048, F -0.105, H -0.099, R -0.061, I -0.07, M -0.039, Y -0.181, W -0.232, L -0.131, G -0.009, N -0.064, V -0.097, E 0.067, S -0.023, C -0.002, Q 0.014, D -0.052, T -0.067, P -0.435
K48: A 0.001, F -0.066, D 0.024, G -0.07, E 0.104, C -0.081
L30: H -0.232, E -0.227, N -0.303, G -0.254, P -1.1, I -0.171, Q -0.032, M -0.043, S -0.178, K -0.103, Y -0.099, W -0.177, D -0.65, F -0.327, C -0.078, T -0.118, R -0.108
T31: W -0.221, L -0.107, S -0.02, H -0.074, G -0.116, P -0.423, V -0.131, Y -0.428, C -0.143, A -0.043, E -0.051, R -0.07, F -0.308, I -0.25, M -0.133, K -0.086, D 0.005, Q -0.045
K44: V -0.034, P -0.037, D 0.059, E -0.021, M -0.096, C -0.126, L -0.108, I -0.159, S 0.003, R -0.139, H -0.121, T -0.023, W -0.09
R36: C -0.051, F -0.097, E -0.084, M -0.103, I -0.101, H -0.321, N -0.023, G -0.111, T -0.037, K -0.072, W -0.182, A -0.006, V -0.05, L -0.093, Q -0.096, D 0.028, P -0.483
W38: D -0.456, H -0.803, Y -0.151, I -0.867, A -0.892, N -1.07, G -0.667, K -0.787, R -1.01, L -0.985, M -1.06, Q -0.701, P -0.737, S -0.732, C -0.98, E -0.49
L33: C -0.1, V -0.067, K -0.154, R -0.159, A -0.118, Q -0.092, D -0.149, P -1.22, H -0.02, W -0.315, E 0.006, I 0.016, M -0.023, S -0.188
E29: S -0.17, H -0.223, N -0.174, V -0.258, L -0.304, C -0.223, K -0.207, I -0.327, P -1.14, M -0.172, F -0.603, R -0.496, G -0.2, T -0.157, Y -0.433, W -0.699, Q -0.111
